Changes are numbered by the printed parent chain. Names and notes keep the numbering of the source.
B1: full-length human MRS2 excluding the mitochondrial targeting sequence, MRS2_(58–443) (natural protein, UniProt Q9HD23 58-443, looked up)
chain: DRLRVAGEVHRFRTSDVSQATLASVAPVFTVTKFDKQGNVTSFERKKTELYQELGLQARDLRFQHVMSITVRNNRIIMRMEYLKAVITPECLLILDYRNLNLEQWLFRELPSQLSGEGQLVTYPLPFEFRAIEALLQYWINTLQGKLSILQPLILETLDALVDPKHSSVDRSKLHILLQNGKSLSELETDIKIFKESILEILDEEELLEELCVSKWSDPQVFEKSSAGIDHAEEMELLLENYYRLADDLSNAARELRVLIDDSQSIIFINLDSHRNVMMRLNLQLTMGTFSLSLFGLMGVAFGMNLESSLEEDHRIFWLITGIMFMGSGLIWRRLLSFLGRQLEAPLPPMMASLPKKTLLADRSMELKNSLRLDGLGSGRSILTNR
notes: in CHAPS micelles in the assay; also called full-length MRS2; source: E. coli BL21 (DE3), purified as the NTD with 10 mM CHAPS in elution and SEC buffers; not shown: His6, N-terminal, cleaved
B2: human MRS2 amino terminal domain, MRS2_(58–333) (domain or fragment, UniProt Q9HD23 58-333, looked up)
chain: DRLRVAGEVHRFRTSDVSQATLASVAPVFTVTKFDKQGNVTSFERKKTELYQELGLQARDLRFQHVMSITVRNNRIIMRMEYLKAVITPECLLILDYRNLNLEQWLFRELPSQLSGEGQLVTYPLPFEFRAIEALLQYWINTLQGKLSILQPLILETLDALVDPKHSSVDRSKLHILLQNGKSLSELETDIKIFKESILEILDEEELLEELCVSKWSDPQVFEKSSAGIDHAEEMELLLENYYRLADDLSNAARELRVLIDDSQSIIFINLDSHRN
notes: Cloned into pET-28a by NdeI and XhoI; also called MRS2 NTD; NTD; source: E. coli BL21 (DE3), purified (nickel-NTA, thrombin cleavage, SEC S200); not shown: His6, N-terminal, cleaved
B3: MRS2_(58–333) D216A/D220A (domain or fragment, human, UniProt Q9HD23 58-333, looked up)
chain: B2 chain with D159A, D163A
notes: also called D216A/D220A MRS2 NTD double mutant; not shown: His6, N-terminal, cleaved

What was measured:
[1] = target: the molecule itself; assay: dynamic light scattering; 0.5 mg/ml in 20 mM Tris, 150 mM NaCl, 1 mM DTT, 10 mM CHAPS, pH 8.0, 37°C; no divalent cations (5 mM MgCl2 or 5 mM CaCl2 gave no change); higher order oligomers
[2] = target: the molecule itself; assay: SEC-MALS; Superdex 200 Increase 10/300 GL, 20 mM Tris, 150 mM NaCl, 1 mM DTT, pH 8.0, ~10°C; no divalent cations; injected at 0.45-5 mg/ml; monomer to dimer

| Protein | binding result [1] | stoichiometry N [2] |
| --- | --- | --- |
| B1 | binds | – |
| B2 | – | 2 |
| B3 | – | 2 |

Reference: PMC9909464, “The human MRS2 magnesium-binding domain is a regulatory feedback switch for channel activity” (Life Science Alliance, 2023)
